Source: patent US10668134B2, “Dental pretreatment material and dental tissue regeneration kit” (National Center for Geriatrics and Gerontology, priority 2016, dated 2020)

Experiments:
[1] = system: canine dental pulp stem cells; assay: Induction of dental pulp and dentin by dental pulp stem cells attached to treated fine-grained dentin particles; assay type: cell-based; conditions: 7 days culture; for cell adhesion to treated dentin: fine-grained dentin treated for 10 minutes (0.05% trypsin; 1 mM EDTA; 0.05% chymotrypsin; 0.1 mg/mL MMP3), HE stain; for induction of the dental pulp stem cells into the dental pulp and dentin: fine-grained dentin treated for 10 minutes, vs untreated dentin
Experimental: A tooth was extracted from a dog. The cementum and dental pulp of the tooth were removed mechanically. The tooth was then rinsed with tapping water for 3 hours, and then crushed into grains. Fine grains of dentin particles having a diameter of 500 μm to 1,000 μm (fine-grained dentin) were separated by use of a sieve. The fine-grained dentin particles was treated with a mixture liquid containing chloroform and methanol at room temperature for 6 hours, and then, with LiCl (8.0 M) at 4° C. for 24 hours. The fine-grained dentin was then inactivated in distilled water at 55° C. for 24 hours. Thereafter, the fine-grained dentin were divided into six groups: group (i) treated with 0.05% trypsin for 10 minutes; group (ii) treated with 0.05% trypsin and 1 mM EDTA for 10 minutes; a group (iii) treated with 1 mM of EDTA for 10 minutes; group (iv) treated with 0.05% chymotrypsin for 10 minutes; group (v) treated with 0.1 mg/mL MMP3 for 10 minutes; and group (vi) subjected to no treatment. Three fine grains of each of the groups were mixed with 2×10^5 canine dental pulp stem cells. Each mixture underwent centrifugation at 2,000 rpm for 5 minutes, followed by culture in Dulbecco's Modified Eagle's Medium containing 10% FBS at 37° C. for 7 days in the presence of 5% CO2. The culture was then fixed overnight with 4% paraformaldehyde. Paraffin sections were prepared according to a common method, and sliced into 5 μm thick ultrathin sections. The ultrathin sections underwent HE stain.

[2] = system: TGW cells (human neuroblastoma cell line); assay: Neurite outgrowth in TGW cells with culture conditioned medium of senescent dental pulp stem cells; assay type: cell-based; conditions: positive control, 50 ng/μl; after 48 hours
Experimental: Non-separated 22nd-passage human dental pulp stem cells were brought into a state of 50% confluence. The medium was replaced with a serum-free medium. After 24 hours, the culture conditioned medium was collected. The supernatant was concentrated approximately 40-fold using Amicon Ultra-15 Centrifugal Filter Unit with Ultracel-3 membrane (Millipore, Billerica, Mass.) with 3-kDa molecular cut. Proteinase inhibitors (Halt™ proteinase inhibitor cocktail EDTA-free, Thermo Scientific, Rockford, Ill., USA) was added. The mixture was dispended to be stored at −80° C. Protein content was measured using Bradford Ultra™ (Expedeon, Cambridge, UK).
The culture supernatant (5 μg/ml proteins) prepared in 1 above was added to TGW cells (human neuroblastoma cell line). Further, an ALK5 inhibitor (SB431542, 10 ng/μl) was added to a part of the resultant mixture, and a CCR3 antagonist (SB328437, 5 ng/μl) was added to another part of the resultant mixture. TGW cells to which only the culture supernatant was added was used as a negative control. […] Neurite outgrowth after 48 hours was observed and measured with an inverted microscope (Leica).

[3] = system: pulpectomized root canal of middle or advanced aged dog; assay: Dental pulp regeneration following pulpectomy by autologous transplantation of dental pulp stem cells after trypsin pretreatment of the root canal; assay type: in vivo
From the text: Under general anesthesia, anterior teeth of upper and lower jaws of middle or advanced aged dog and young aged dog were pulpectomized. For each tooth, the root canal was enlarged with #50-55 to the apex, and was irrigated alternately with a 5% sodium hypochlorite solution and a 3% hydrogen peroxide solution, followed by washing with physiologic saline. The root canal was completely dried with paper points, and hemorrhage was controlled. The root canal was completely closed with a temporary seal of cement and resin. After 7 to 14 days following the pulpectomy, the temporary seal was removed, and the root canal underwent the alternate washing, and then, washing with physiologic saline. Smear clean (3% EDTA) was then allowed to react for 2 minutes. The root canal was then further washed with physiologic saline, and dried. Thereafter, FRANCETIN⋅T⋅POWDER (2500 USP of crystalized trypsin per 10 mg) (MOCHIDA PHARMACEUTICAL CO., LTD.) at a concentration of 50 μg/ml (0.05%) or 500 μg/ml (0.5%) was allowed to react in the root canal for 10 minutes or 30 minutes. Washing with physiologic saline was then performed. As a control, a tooth on the opposite side was not treated. Further, FRANCETIN⋅T⋅POWDER was mixed with a nanobubble liquid into a 50 μg/ml (0.05%) solution. The solution was allowed to act in a similar manner for 10 minutes, followed by washing with physiologic saline. A root canal filler was prepared by suspending 1×10^6 autologous dental pulp stem cells, which had been membrane-isolated, in 40 μl of a scaffold (Koken Atelocollagen Implant, KOKEN CO., LTD.), and by suspending 3 μl of 100 μg/ml G-CSF (NEUTROGIN, Chugai Pharmaceutical Co., Ltd.). The root canal filler prepared was injected into each root canal such that no air bubbles were contained. The mobilized dental pulp stem cells were isolated using the membrane-isolation-type culture device described above. A hemostatic gelatin sponge (Spongel) was put on the root canal filler. The cavity was completely sealed with cement and resin. On day 14 following the transplantation, the teeth were extracted. According to a common method, 5 μm paraffin sections of longitudinal cross section were prepared. The paraffin sections were then H-E stained to undergo morphological observation. To analyze angiogenesis, the sections were immunostained with BS-1 lectin. Amounts of regenerated dental pulp of four sections were measured for each sample, and an average amount of four samples was determined as the amount of regenerated dental pulp of the sample.

[4] = 50 μg/ml (0.05%), no dental pulp stem cells transplanted

O=C(O)CN(CCN(CC(=O)O)CC(=O)O)CC(=O)O [EDTA]
cell adhesion to treated dentin [1]: a less number of cells adhered
induction of the dental pulp stem cells into the dental pulp and dentin [1]: induction into the dentin was promoted

MMP3: 0.1 mg/mL MMP3, dentin treatment group (v)
cell adhesion to treated dentin [1]: inferior in cell adhesiveness

chymotrypsin
cell adhesion to treated dentin [1]: inferior in cell adhesiveness

B1: GDNF: GDNF (Peproteck), positive control for neurite outgrowth (protein, UniProt P39905 78-211, looked up)
Glial cell line-derived …: SPDKQMAVLPRRERNRQAAAANPENSRGKGRRGQRGKNRGCVLTAIHLNVTDLGLGYETKEELIFRYCSGSCDAAETTYDKILKNLSRNRRLVSDKVGQACCRPIAFDDDLSFLDDNLVYHILRKHSAKRCGCI
Neurite Outgrowth Length [2]: 10540.1 ± 4800.7 μm

B2: trypsin (protein, UniProt P00760 24-246, looked up)
Serine protease 1: IVGGYTCGANTVPYQVSLNSGYHFCGGSLINSQWVVSAAHCYKSGIQVRLGEDNINVVEGNEQFISASKSIVHPSYNSNTLNNDIMLIKLKSAASLNSRVASISLPTSCASAGTQCLISGWGNTKSSGTSYPDVLKCLKAPILSDSSCKSAYPGQITSNMFCAGYLEGGKDSCQGDSGGPVVCSGKLQGIVSWGSGCAQKNKPGVYTKVCNYVSWIKQTIASN
notes: FRANCETIN⋅T⋅POWDER (2500 USP of crystalized trypsin per 10 mg), serine protease dental pretreatment material
cell adhesion to treated dentin [1]: cell adhesion was facilitated
induction of the dental pulp stem cells into the dental pulp and dentin [1]: more promoted
increase of the amount of regenerated dental pulp ([3]; 50 μg/ml (0.05%) for 10 minutes prior to root canal filler, day 14, vs no pretreatment): 2.5 times
amount of regenerated dental pulp ([3]; 50 μg/ml (0.05%) for 30 minutes, compared with same concentration for 10 minutes, day 14): doubled
dental pulp regeneration [3, 4]: almost no dental pulp was regenerated
inflammation around the periapical region [3, 4]: no inflammation occurred
amount of regenerated dental pulp ([3]; 500 μg/ml (0.5%) for 10 minutes, compared with 50 μg/ml (0.05%), day 14): did not cause any significant difference
abnormality at the periapical region ([3]; after trypsin pretreatment and transplantation, day 14): Abnormality such as inflammation was not observed
inflammatory cells, necrotic layer in dental pulp formed after treatment ([3]; day 14): did not show any increase of inflammatory cells, formation of necrotic layer
angiogenesis in the regenerated dental pulp (BS-1 lectin) ([3]; day 14, each pretreated sample): angiogenesis was observed
calcification in the periapical tissue (Masson Trichrome stain, vimentin immunostaining) ([3]; dog 5 years of age, 0.05% trypsin 10 minutes, day 14): decomposed the calcification in the periapical tissue
